Results from patent US20220220200A1.

Key:
[1] = molecular target: CD19 on the cell surface (native CD19 antigen) (human) (UniProt P15391); assay: flow cytometry, phage clone on Raji cells (CD19-positive)
[2] = molecular target: CD19 on the cell surface (native CD19 antigen) (human) (UniProt P15391); assay: flow cytometry, phage clone on JVM-2 cells (CD19-positive)
[3] = molecular target: CD19 on the cell surface (native CD19 antigen) (human) (UniProt P15391); assay: flow cytometry, phage clone on K562-CD19 cells (CD19-positive)

Sequence of CD19 on the cell surface (native CD19 antigen) (human) (P15391 20-556): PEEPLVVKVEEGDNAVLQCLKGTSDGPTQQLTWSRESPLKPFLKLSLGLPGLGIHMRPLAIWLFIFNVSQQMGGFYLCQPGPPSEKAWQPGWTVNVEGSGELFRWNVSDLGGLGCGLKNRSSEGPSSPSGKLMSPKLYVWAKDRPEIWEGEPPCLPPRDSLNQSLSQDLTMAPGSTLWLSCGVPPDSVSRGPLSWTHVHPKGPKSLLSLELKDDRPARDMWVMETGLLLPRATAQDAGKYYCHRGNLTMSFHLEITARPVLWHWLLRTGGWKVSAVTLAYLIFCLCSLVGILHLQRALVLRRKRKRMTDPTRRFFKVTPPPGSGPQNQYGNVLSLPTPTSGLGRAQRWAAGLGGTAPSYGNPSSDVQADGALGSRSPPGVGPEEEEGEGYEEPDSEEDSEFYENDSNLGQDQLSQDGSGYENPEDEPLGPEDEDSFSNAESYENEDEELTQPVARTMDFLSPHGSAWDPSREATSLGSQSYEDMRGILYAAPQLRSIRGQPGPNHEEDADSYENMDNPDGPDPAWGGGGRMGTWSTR

Substance “FMC-63 (humanized mouse anti-human CD19 phage antibody clone) (scFv)” has an MFI [1] of 55.8, an MFI [2] of 22.4 and an MFI [3] of 38.1.
